The values below come from publication PMC11252000, “MFSD1 with its accessory subunit GLMP functions as a general dipeptide uniporter in lysosomes” (Nature Cell Biology, 2024).

Where a SMILES comes first, the peptide text is derived from it.

Assay [1] concerns the target T1, MFSD1 (MFSD1WT, mmMFSD1, MFSD1-strep) (Mus musculus, UniProt Q9DC37).
T1 construct: full length; N-terminal Twin-Strep-tag + HRV 3C site; Expi293F; purified in DDM/CHS; liposomes POPE:POPG:CHS for transport
T1 sequence (Q9DC37 1-464): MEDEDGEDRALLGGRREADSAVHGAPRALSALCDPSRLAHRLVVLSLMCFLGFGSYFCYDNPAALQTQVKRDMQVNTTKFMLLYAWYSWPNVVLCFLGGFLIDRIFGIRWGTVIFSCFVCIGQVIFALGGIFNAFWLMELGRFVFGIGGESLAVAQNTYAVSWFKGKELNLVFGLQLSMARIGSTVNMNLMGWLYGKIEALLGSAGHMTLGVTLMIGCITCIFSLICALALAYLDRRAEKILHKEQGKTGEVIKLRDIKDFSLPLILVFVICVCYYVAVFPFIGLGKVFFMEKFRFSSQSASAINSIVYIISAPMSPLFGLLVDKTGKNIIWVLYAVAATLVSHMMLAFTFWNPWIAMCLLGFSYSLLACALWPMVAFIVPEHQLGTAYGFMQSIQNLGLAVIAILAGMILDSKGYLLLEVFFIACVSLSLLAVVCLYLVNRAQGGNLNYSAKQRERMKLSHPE
Briefly: nanoDSF thermal shift titration. Format: binding.

The target in assay [2] is GLMP + MFSD1 co-complex (co-expressed MFSD1-strep and GLMP-Ct-His-GFP, purified) (mouse) (UniProt Q9DC37).
The target of assay [3] is MFSD1-strep (mouse major facilitator superfamily domain containing 1 protein with N-terminal Twin-Strep-tag) (mouse) (UniProt Q9DC37). Briefly: nanoDSF thermal shift; protein 0.2 mg/ml in 100 mM HEPES pH 7.5, 150 mM NaCl, 0.03% DDM, 0.003% CHS; 5 mM ligand, 30 min at room temperature; 20 to 95 °C at 1 °C/min (Prometheus NT.48).
The target of a further assay is Pro–Arg dipeptide. Briefly: nanoDSF thermal stability assay. Conditions: 5 mM peptide, n = 3, apo Tm of WT est. 40 °C, parent: est. 49, read off a plot.
Another assay concerns the target Anserine. Briefly: nanoDSF thermal stability assay. The note with it: 5 mM peptide, n = 3, apo Tm of WT est. 40 °C, parent: est. 40, read off a plot.
In the next assay the target is Ala–Ala dipeptide. Kind of assay: nanoDSF thermal stability assay. Conditions: 5 mM peptide, n = 3, apo Tm of WT est. 40 °C, parent: est. 41, read off a plot.
The target of a further assay is Ala-His. Kind of assay: nanoDSF thermal stability assay. The note with it: 5 mM peptide, n = 3, apo Tm of WT est. 40 °C, parent: est. 40, read off a plot.
The target in a further assay is Arg–Pro dipeptide. Briefly: nanoDSF thermal stability assay. The note with it: 5 mM peptide, n = 3, apo Tm of WT est. 40 °C, parent: est. 42, read off a plot.
The next assay has as its target His-Ser dipeptide. Briefly: nanoDSF thermal stability assay. Conditions: 5 mM peptide, n = 3, apo Tm of WT est. 40 °C, parent: est. 40, read off a plot.
Another assay concerns the target Leu–Ala dipeptide. Briefly: nanoDSF thermal stability assay. Conditions: 5 mM peptide, n = 3, apo Tm of WT est. 40 °C, parent: est. 47, read off a plot.
In the next assay the target is His–Ala dipeptide. Kind of assay: nanoDSF thermal stability assay. The note with it: 5 mM peptide, n = 3, apo Tm of WT est. 40 °C, parent: est. 41, read off a plot.
A further assay deals with Lys–Val dipeptide. Briefly: nanoDSF thermal stability assay. Conditions: 5 mM peptide, n = 3, apo Tm of WT est. 40 °C, parent: est. 46, read off a plot.
[4] abbreviates: apo Tm of this mutant est. 36 °C.
Where [5] appears, read: apo Tm of this mutant est. 37 °C.
Setting [6] is: apo Tm of this mutant est. 42 °C.
Where [7] appears, read: apo Tm of this mutant est. 47 °C.
[8] abbreviates: apo Tm of this mutant est. 39 °C.

MFSD1-strep (mouse major facilitator superfamily domain containing 1 protein with N-terminal Twin-Strep-tag) (from UniProt Q9DC37) Q176A, sequence (Q9DC37 whole entry Q176A, looked up, the tested form may be a part): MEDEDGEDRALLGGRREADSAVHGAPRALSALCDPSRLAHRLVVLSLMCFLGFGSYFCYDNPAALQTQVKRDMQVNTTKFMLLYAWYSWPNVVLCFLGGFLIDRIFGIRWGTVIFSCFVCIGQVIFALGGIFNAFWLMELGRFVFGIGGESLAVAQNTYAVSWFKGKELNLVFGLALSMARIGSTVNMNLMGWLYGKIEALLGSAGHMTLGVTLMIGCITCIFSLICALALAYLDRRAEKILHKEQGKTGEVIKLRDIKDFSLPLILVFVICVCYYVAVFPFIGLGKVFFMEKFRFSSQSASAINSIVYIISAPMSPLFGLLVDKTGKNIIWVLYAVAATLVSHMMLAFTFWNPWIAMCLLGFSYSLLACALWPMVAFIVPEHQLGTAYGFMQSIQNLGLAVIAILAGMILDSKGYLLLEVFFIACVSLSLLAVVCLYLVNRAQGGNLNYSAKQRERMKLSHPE
MFSD1-strep (mouse major facilitator superfamily domain containing 1 protein with N-terminal Twin-Strep-tag) (from UniProt Q9DC37) Y56A, sequence (Q9DC37 whole entry Y56A, looked up, the tested form may be a part): as the sequence (Q9DC37 whole entry Q176A, looked up, the tested form may be a part) above, with Y56A, A176Q counted along it
MFSD1-strep (mouse major facilitator superfamily domain containing 1 protein with N-terminal Twin-Strep-tag) (from UniProt Q9DC37) W373A, sequence (Q9DC37 whole entry W373A, looked up, the tested form may be a part): as the sequence (Q9DC37 whole entry Q176A, looked up, the tested form may be a part) above, with A176Q, W373A counted along it
MFSD1-strep (mouse major facilitator superfamily domain containing 1 protein with N-terminal Twin-Strep-tag) (from UniProt Q9DC37) Q176E, sequence (Q9DC37 whole entry Q176E, looked up, the tested form may be a part): as the sequence (Q9DC37 whole entry Q176A, looked up, the tested form may be a part) above, with A176E counted along it
MFSD1-strep (mouse major facilitator superfamily domain containing 1 protein with N-terminal Twin-Strep-tag) (from UniProt Q9DC37) Q176K, sequence (Q9DC37 whole entry Q176K, looked up, the tested form may be a part): as the sequence (Q9DC37 whole entry Q176A, looked up, the tested form may be a part) above, with A176K counted along it

On to `NCCCC[C@H](NC(=O)[C@@H](N)Cc1c[nH]cn1)C(=O)O` [His–Lys] (H-His-Lys-OH), for which the Kd in [1] was 765 ± 136 µM.

For the compound `CC(C)C[C@H](N)C(=O)N[C@@H](C)C(=O)O` [Leu–Ala] (H-Leu-Ala-OH), in [1], the Kd stood at 2200 ± 420 µM.

On to `CC(C)[C@H](NC(=O)[C@@H](N)CCCCN)C(=O)O` [Lys–Val] (H-Lys-Val-OH), for which the Kd in [1] was found to be 4300 ± 600 µM.

On to `N=C(N)NCCC[C@H](NC(=O)[C@@H]1CCCN1)C(=O)O` [Pro–Arg] (H-Pro-Arg-OH), for which the Kd in [1] was 318 ± 66.7 µM.

For Glu–Ser dipeptide, the inhibition of the current evoked by 3 mM Lys–Ala in MFSD1–GLMP oocytes (TEVC, pH 5.0) by 10 mM Glu–Ser applied simultaneously in assay [2] was determined as 26%.

For His–Lys dipeptide, the ΔTm at 5 mM ligand in assay [3] is 12 °C.

With Leu–Leu dipeptide, in assay [3], the ΔTm at 5 mM ligand worked out at 14 °C.

On to Lys–Ala dipeptide, for which, in [2], the KM of the Lys–Ala-evoked inward current in MFSD1–GLMP oocytes (TEVC, −40 mV, pH 5.0) came to 2.6 mM.

For the compound “MFSD1-strep (mouse major facilitator superfamily domain containing 1 protein with N-terminal Twin-Strep-tag) (from UniProt Q9DC37) Q176A”, the other: Tm with Pro–Arg dipeptide (setting [4]) came to 59 °C; in the assay with Anserine (setting [4]), 36 °C; with Ala–Ala dipeptide (setting [4]) it was 40 °C; in the assay with Ala-His (setting [4]), 36 °C; with Arg–Pro dipeptide (setting [4]), 48 °C; in the assay with His-Ser dipeptide (setting [4]) it was 37 °C. For the same compound, the other: Tm with Leu–Ala dipeptide (setting [4]) was 48 °C; in the assay with His–Ala dipeptide (setting [4]) it was 42 °C; with Lys–Val dipeptide (setting [4]) it was 49 °C.

“MFSD1-strep (mouse major facilitator superfamily domain containing 1 protein with N-terminal Twin-Strep-tag) (from UniProt Q9DC37) Q176E”: the other: Tm with Pro–Arg dipeptide (setting [5]) turned out to be 51 °C; in the assay with Anserine (setting [5]), 40 °C; in the assay with Ala–Ala dipeptide (setting [5]), 42 °C; in the assay with Ala-His (setting [5]) it was 40 °C; with Arg–Pro dipeptide (setting [5]) it was 48 °C; with His-Ser dipeptide (setting [5]), 40 °C. Moreover, the other: Tm with Leu–Ala dipeptide (setting [5]) was 52 °C; in the assay with His–Ala dipeptide (setting [5]), 44 °C; in the assay with Lys–Val dipeptide (setting [5]), 49 °C.

“MFSD1-strep (mouse major facilitator superfamily domain containing 1 protein with N-terminal Twin-Strep-tag) (from UniProt Q9DC37) Q176K”: the other: Tm with Pro–Arg dipeptide (setting [6]) worked out at 42 °C; with Anserine (setting [6]) it was 43 °C; with Ala–Ala dipeptide (setting [6]) it was 46 °C; in the assay with Ala-His (setting [6]), 43 °C; with Arg–Pro dipeptide (setting [6]), 42 °C; with His-Ser dipeptide (setting [6]) it was 45 °C. Besides, the results for the other: Tm in the assay with Leu–Ala dipeptide (setting [6]), with His–Ala dipeptide (setting [6]) and with Lys–Val dipeptide (setting [6]) were 53 °C, 49 °C and 43 °C, respectively.

For the compound “MFSD1-strep (mouse major facilitator superfamily domain containing 1 protein with N-terminal Twin-Strep-tag) (from UniProt Q9DC37) W373A”, the other: Tm with Pro–Arg dipeptide (setting [7]) was found to be 47 °C; in the assay with Anserine (setting [7]) it was 47 °C; in the assay with Ala–Ala dipeptide (setting [7]) it was 47 °C; in the assay with Ala-His (setting [7]), 47 °C; in the assay with Arg–Pro dipeptide (setting [7]), 46 °C; with His-Ser dipeptide (setting [7]), 47 °C. For the same compound, the other: Tm with Leu–Ala dipeptide (setting [7]), in the assay with His–Ala dipeptide (setting [7]) and in the assay with Lys–Val dipeptide (setting [7]) was 47 °C throughout.

Take “MFSD1-strep (mouse major facilitator superfamily domain containing 1 protein with N-terminal Twin-Strep-tag) (from UniProt Q9DC37) Y56A”: the other: Tm with Pro–Arg dipeptide (setting [8]) came to 44 °C; with Anserine (setting [8]), 42 °C; with Ala–Ala dipeptide (setting [8]), 41 °C; with Ala-His (setting [8]), 42 °C; with Arg–Pro dipeptide (setting [8]) it was 42 °C; with His-Ser dipeptide (setting [8]), 42 °C. Also, the other: Tm with Leu–Ala dipeptide (setting [8]) was found to be 45 °C; with His–Ala dipeptide (setting [8]), 42 °C; in the assay with Lys–Val dipeptide (setting [8]), 45 °C.

Take Pro–Arg dipeptide: the thermal shift (ΔTm) at 5 mM ligand in [3] worked out at 12.1 °C.
